Data from patent US20110269161.

What was measured:
[1] = system: T1, peptide C6 (TKRSGSVYEPPFR), derived from phosphorylase b kinase regulatory subunit beta (Ser26)
T1 sequence: TKRSGSVYEPPFR

[2] = system: T2, peptide F6 (RIRTQSFSLQPFR), derived from nitric-oxide synthase, endothelial (Ser1176)
T2 sequence: RIRTQSFSLQPFR

[3] = system: T3, peptide A6 (RPGPQSPGSPPFR), derived from neutrophil cytosol factor 1
T3 sequence: RPGPQSPGSPPFR

[4] = system: T4, peptide B11 (LKLSPSPSSRPFR), derived from lamin-b1 (Ser392)
T4 sequence: LKLSPSPSSRPFR

[5] = system: T5, peptide C2 (IPTGTTPQRKPFR), derived from kinesin-like protein kif11 (Thr927)
T5 sequence: IPTGTTPQRKPFR

[6] = system: seven peptides sharing a common motif of [S/T]-Pro and clear upregulation by G2/M arrest
[7] = system: peptide H5 (EYDRLYEEYTPFR), derived from Phosphatidylinositol 3-kinase regulatory subunit p85α(Tyr-467)/p55γ(Tyr-199)

For “Akt1 (full length), purified human active kinase”, which “in vitro peptide phosphorylation by purified kinase (KAYAK, LC-MS)” value [1] is on record?
Its value is “this peptide was not significantly phosphorylated by Akt”.

What about the “peptide phosphorylation, 100 µM peptide reacted individually” value [2] of the same substance?
The value was “both RSK and Akt demonstrated strong phosphorylation”.

What does the source list for “Cdc2/cyclin B1 (full length), purified complex”?
phosphorylation by purified kinase complex (KAYAK profiling of 90 peptides) [3]: purified Cdc2/Cyclin B1 complex phosphorylated all 7 peptides along with 4 other up-regulated peptides; phosphorylation by purified kinase complex (KAYAK profiling of 90 peptides) [4]: purified Cdc2/Cyclin B1 complex phosphorylated all 7 peptides along with 4 other up-regulated peptides; phosphorylation by purified kinase complex (KAYAK profiling of 90 peptides) [5]: purified Cdc2/Cyclin B1 complex phosphorylated all 7 peptides along with 4 other up-regulated peptides; phosphorylation by purified kinase complex (KAYAK profiling of 90 peptides) [6]: purified Cdc2/Cyclin B1 complex phosphorylated all 7 peptides along with 4 other up-regulated peptides

How did the “in vitro kinase reaction with purified kinase” value [7] turn out when “Src (full length), purified human active kinase” was run?
Its value is “robust phosphorylation by Src but not EGFR”.
